Data from patent US20230055566A1 (DIZAL JIANGSU PHARMACEUTICAL, published 2023).
Positions count from the first letter of the chain named. Numbers in names are those of the source. Blank lines part the entries; values can stand above or below the binder they belong to.

How the values were obtained:
cyno FGFR2b-Fc = biological target: T1, cyno FGFR2b-Fc (Cynomolgus monkey); test: ELISA, plate coated with cyno FGFR2b-Fc, anti-human IgG HRP
T1 construct: also called recombinant cyno FGFR2b-Fc; cynomolgus FGFR2b
Method: (§1) The cross-species binding of Ab 21c to recombinant cyno, rat/mouse, and human FGFR2b-Fc fusion proteins was conducted with ELISA. In brief, 96-well ELISA plate were coated with about 100 μl/well 0.1 μg/ml recombinant human FGFR2b-Fc, recombinant rat/mouse FGFR2b-Fc, or recombinant cyno FGFR2b-Fc protein in PBS overnight. Then the plate was blocked with 2% BSA in PBS with 0.05% Tween20 and incubation with antibody samples for 60 min at room temperature, and then washed twice in 1×TBST (Cell Signaling Technology, #9997) and followed by incubation with anti-human lgG HRP (Horseradish peroxidase) conjugate for 60 min at a room temperature. HRP activity was detected with tetra-methylbenzidine substrate (Cell Signaling Technology, #7004) and the reaction was stopped with stop solution (Cell Signaling Technology, #7002). The plate was read at 450 nm. […] Ab 21c has the highest binding affinity to rat/mouse FGFR2b, followed by human FGFR2b, and then cyno FGFR2b.

[1] = biological target: T2, recombinant human FGFR1b-Fc (human, UniProt P11362-19 22-376); test: SPR (Biacore), hFGFR1b-Fc immobilized on CM5 chip, antibody injected at 0-200 nM
T2 construct: Bought from R&D Systems; also called hFGFR1b-Fc; not shown: human Fc
T2 sequence (looked up): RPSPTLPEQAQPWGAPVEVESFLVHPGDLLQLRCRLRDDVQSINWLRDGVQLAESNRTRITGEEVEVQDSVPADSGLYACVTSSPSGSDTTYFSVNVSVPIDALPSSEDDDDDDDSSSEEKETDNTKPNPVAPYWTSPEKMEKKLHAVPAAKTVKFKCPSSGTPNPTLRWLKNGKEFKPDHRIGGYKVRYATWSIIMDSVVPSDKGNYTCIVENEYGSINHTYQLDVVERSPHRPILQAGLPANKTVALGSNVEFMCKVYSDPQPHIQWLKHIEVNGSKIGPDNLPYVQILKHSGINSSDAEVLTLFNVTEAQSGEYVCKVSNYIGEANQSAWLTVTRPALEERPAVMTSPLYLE
Method: (§2) The binding of antibodies to human FGFR2b or human FGFR1b antigen was determined by surface plasmon resonance (Biacore). Briefly, CM5 sensor chip (GE Healthcare Life Sciences) was firstly activated by a 4 min injection of 1:1 freshly mixture of 50 mM N-hydroxysuccinamide (NHS): 200 mM […]. Then hFGFR2b-Fc or hFGFR1b-Fc was immobilized to activated CM5 sensor chip using Amine Coupling Kit (GE Healthcare Life Sciences) and 1M ethanolamine as the blocking reagent. About 20-30 response units (RU, 1 RU represents the binding of 1 pg of protein per square mm) of antigen protein were captured.
(§3) The association constant, dissociation constant were calculated with Biacore T200 evaluation software (version 1.0). […] In addition, Ab 21c is distinguished from the antibody FPA144 in terms of FGFR1b binding.

[2] = biological target: T2, recombinant human FGFR1b-Fc; test: SPR (Biacore T200), hFGFR1b-Fc amine-coupled on CM5 chip, antibody as analyte
Method: as §2, §3

[3] = biological target: T3, recombinant rat/mouse FGFR2b-Fc (rat); test: ELISA, plate coated with rat/mouse FGFR2b-Fc, anti-human IgG HRP
T3 construct: also called rat FGFR2b fused with murine Fc
Method: as §1

FGFR4-Fc [4] = biological target: T4, FGFR4-Fc (human, UniProt P22455 22-369); test: ELISA, plate coated with HuFGFR4
T4 construct: Bought from R&D Systems; not shown: human Fc
T4 sequence (looked up): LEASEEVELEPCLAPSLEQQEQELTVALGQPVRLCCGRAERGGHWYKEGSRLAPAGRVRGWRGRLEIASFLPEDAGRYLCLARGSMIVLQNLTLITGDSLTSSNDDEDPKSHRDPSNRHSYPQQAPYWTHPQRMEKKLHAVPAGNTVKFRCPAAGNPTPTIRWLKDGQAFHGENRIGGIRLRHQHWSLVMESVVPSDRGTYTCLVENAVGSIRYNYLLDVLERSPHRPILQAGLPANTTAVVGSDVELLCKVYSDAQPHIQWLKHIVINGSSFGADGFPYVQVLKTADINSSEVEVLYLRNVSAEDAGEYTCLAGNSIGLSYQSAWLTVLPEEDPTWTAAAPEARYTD

FGFR3b-Fc [5] = biological target: T5, FGFR3b-Fc (human, UniProt P22607-2 23-377); test: ELISA, plate coated with HuFGFR3b
T5 construct: Bought from R&D Systems; the IIIb form is an isoform of it; not shown: human Fc
T5 sequence (looked up): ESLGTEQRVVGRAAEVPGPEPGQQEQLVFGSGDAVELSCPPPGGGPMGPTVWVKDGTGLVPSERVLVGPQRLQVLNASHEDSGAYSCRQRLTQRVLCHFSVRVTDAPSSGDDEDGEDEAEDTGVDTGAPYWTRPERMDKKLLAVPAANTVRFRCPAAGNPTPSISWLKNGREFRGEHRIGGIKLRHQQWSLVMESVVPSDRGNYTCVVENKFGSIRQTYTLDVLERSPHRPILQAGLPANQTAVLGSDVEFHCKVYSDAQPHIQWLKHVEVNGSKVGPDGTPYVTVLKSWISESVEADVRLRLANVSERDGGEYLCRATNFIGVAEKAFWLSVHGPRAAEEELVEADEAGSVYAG

FGFR4-Fc [6] = biological target: T4, FGFR4-Fc; test: ELISA on FGFR family Fc fusion proteins
FGFR3b-Fc [7] = biological target: T5, FGFR3b-Fc; test: ELISA on FGFR family Fc fusion proteins

EC50 (read off the curve) (cyno FGFR2b-Fc): ~0.6 nM
koff [1]: 0.000235 s⁻¹
kon [1]: 63800 M⁻¹ s⁻¹
Kd [2]: 3.69 nM
EC50 (read off the curve) [3]: ~0.2 nM
B1: Ab 21c (antibody, V domains shown)
VH: EVQLHQSGTVLARPGASVKMSCKTSGYTFTNYWMHWIKQRPGQGLEWIGAIYPENGDINYNQKFKGKAKLTAVTSASTAYMDLSSLTNEDSAVYYCTSRGDYWGQGTTLTVSS
VL: QIVLTQSPAIMSASPGEKVTMTCSASSGLSYMSWYQQKPGSSPRLLIYDTSNLASGVPVRFSGSGSGTSYSLTISRMEAEDAATYYCQQWSSYPYTFGGGTKLEIK
notes: Chimeric antibody: mouse VH and VL fused to human heavy and light chain constant regions; also called chimeric Ab 21c

binding result (FGFR4-Fc [6]): no binding
binding result (FGFR3b-Fc [7]): no binding
B4: Ab hu21-26 (antibody, human IgG1, V domains shown)
VH: EVQLVQSGAEVKKPGASVKVSCKASGYTFTNYWMHWVRQAPGQGLEWMGAIYPENRDINYNQKFKGRVTLTRDTSISTAYMELSRLRSDDTAVYYCTSRGDYWGQGTTVTVSS
VL: AIQLTQSPSSLSASVGDRVTITCSASSGLSYMSWYQQKPGKAPKLLIYDTSNLASGVPSRFSGSGSGTDFTLTISSLQPEDFATYYCQQWSSYPYTFGQGTKLEIK
notes: Humanized antibody with human IgG1; The VH equals that of hu21-21 except for G56R; also called afhu21-26 (afucosylated version)

Second part, the binder before the results:

B2: Ab 21 (antibody, V domains shown)
VH: B1 VH
VL: B1 VL
notes: Mouse monoclonal antibody from a hybridoma; also called mouse Ab 21
binding result (FGFR4-Fc [4]): no binding (tested: about 10^-7.3 M (about 5e-8 M))
binding result (FGFR3b-Fc [5]): no binding (tested: about 10^-7.3 M (about 5e-8 M))

B3: Ab hu21-21 (antibody, V domains shown)
VH: B4 VH with R56G
VL: B4 VL
notes: Humanized antibody based on Ab 21
binding result (FGFR4-Fc [6]): no binding
binding result (FGFR3b-Fc [7]): no binding
